Measurements published in patent US20160002357A1 (Pfizer, published 2016).

Target: T1, P-cadherin-ECD1-3-Fc protein (human P-cadherin-Fc) (human, UniProt P22223 108-440)
T1 construct: Construct was expressed with signal peptide and pro-peptide (PACE co-transfected to process the propeptide); not shown: hinge and CH2 and CH3 domains of human IgG1
Assay: phage scFv ELISA, coated P-cadherin-ECD1-3-Fc
Procedure: ScFvs may be expressed on the surface of a phage particle. To prepare phage expressing scFv on their surface, 96-deep well plates containing 1 mL 2× TY media with 2% glucose/100 μg/mL ampicillin were inoculated with 0.5-1 μL from thawed glycerol stocks (one clone per well) using the QPix™2 Colony picker (Molecular Devices, Sunnyvale Calif.) and grown at 37° C. (900 rpm) for ˜4 hours. Next, 5 μL of a 1:29 dilution of helper phage (8.3×10¹³ pfu) was added and the plates and incubated for a further 30 minutes at 37° C. with no shaking then 1 hour at 300 rpm. Plates were centrifuged and the media was replaced with a kanamycin/non-glucose containing media (2× TY with 50 μg/mL kanamycin and 100 μg/mL ampicillin). Plates were grown overnight at 25° C. (900 rpm), and phage were harvested in the supernatant following centrifugation.
P-cadherin-ECD1-3-Fc protein or negative control protein was coated overnight at 4° C. on 96-well Nunc Maxisorp® plates (Thermo Fisher Scientific, Madison, Conn.) at a concentration of 2 μg/mL in PBS+Ca²⁺ and Mg²⁺. Plates were washed three times using PBS+Ca²⁺ and Mg²⁺ and blocked for 1 hour at room temperature in 3% milk/PBS+Ca²⁺ and Mg²⁺. Phage samples prepared as described above were added to the blocked plates for 1 hour at room temperature. Plates were washed three times with PBS+Ca²⁺ and Mg²⁺ prior to the addition of secondary antibody (anti M13-HRP 1:2000, GE Healthcare, Piscataway, N.J.). Plates were incubated for a further 1 hour at room temperature and washed six times with PBS+Ca²⁺ and Mg²⁺. Signal was developed using TMB (SurModics, Eden Prairie, Minn.), the reaction stopped with H₂SO₄ and the absorbance read at 450 nm on an EnVision® plate reader (Perkin Elmer, Waltham, Mass.).

T1 sequence (P22223 108-440): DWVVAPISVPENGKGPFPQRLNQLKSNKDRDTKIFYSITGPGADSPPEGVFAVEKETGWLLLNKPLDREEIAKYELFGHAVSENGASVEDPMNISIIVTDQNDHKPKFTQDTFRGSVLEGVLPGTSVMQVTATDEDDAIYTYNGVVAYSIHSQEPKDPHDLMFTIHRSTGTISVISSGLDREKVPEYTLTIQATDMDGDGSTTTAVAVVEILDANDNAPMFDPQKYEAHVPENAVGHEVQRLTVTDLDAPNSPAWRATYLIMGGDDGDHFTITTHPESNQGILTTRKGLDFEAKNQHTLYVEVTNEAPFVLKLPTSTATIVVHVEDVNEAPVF

B1: anti-P-cadherin scFv 153 alanine-mutant L1.2-Ala (scFv, V domains shown)
VH: EVQLVQSGAEVKKPGASVKVSCKASGYTFTSYGISWVRQAPGQGLEWMGWISAYNGNTNYAQKLQGRVTMTTDTSTSTAYMELRSLRSDDTAVYYCATIDTANAFGIWGQGTMVTVSS
VL: QSVLTQPPSVSAAPGQKVTISCSASSSNIGNNYVSWYQQLPGTAPKLLIYDNNKRPSGIPDRFSGSKSGTSATLGITGLQTGDEADYYCGTWDSSLSGVVFGGGTKLTVL
notes: scFv on phage
% of binding of Clone #153 to human P-cadherin-Fc: 97%
Human P-cadherin-Fc binding (OD450): 1.28 OD450
Z Score: -0.1

B2: anti-P-cadherin scFv 153 alanine-mutant L1.12-Ala (scFv, V domains shown)
VH: EVQLVQSGAEVKKPGASVKVSCKASGYTFTSYGISWVRQAPGQGLEWMGWISAYNGNTNYAQKLQGRVTMTTDTSTSTAYMELRSLRSDDTAVYYCATIDTANAFGIWGQGTMVTVSS
VL: QSVLTQPPSVSAAPGQKVTISCSGSSSNIGNNYASWYQQLPGTAPKLLIYDNNKRPSGIPDRFSGSKSGTSATLGITGLQTGDEADYYCGTWDSSLSGVVFGGGTKLTVL
notes: scFv on phage
% of binding of Clone #153 to human P-cadherin-Fc: 173%
Human P-cadherin-Fc binding (OD450): 2.29 OD450
Z Score: 1.6

B3: anti-P-cadherin scFv 153 alanine-mutant L1.7-Ala (scFv, V domains shown)
VH: EVQLVQSGAEVKKPGASVKVSCKASGYTFTSYGISWVRQAPGQGLEWMGWISAYNGNTNYAQKLQGRVTMTTDTSTSTAYMELRSLRSDDTAVYYCATIDTANAFGIWGQGTMVTVSS
VL: QSVLTQPPSVSAAPGQKVTISCSGSSSNAGNNYVSWYQQLPGTAPKLLIYDNNKRPSGIPDRFSGSKSGTSATLGITGLQTGDEADYYCGTWDSSLSGVVFGGGTKLTVL
notes: scFv on phage
% of binding of Clone #153 to human P-cadherin-Fc: 108%
Human P-cadherin-Fc binding (OD450): 1.42 OD450
Z Score: 0.2

B4: anti-P-cadherin scFv 153 alanine-mutant L1.3-Ala (scFv, V domains shown)
VH: EVQLVQSGAEVKKPGASVKVSCKASGYTFTSYGISWVRQAPGQGLEWMGWISAYNGNTNYAQKLQGRVTMTTDTSTSTAYMELRSLRSDDTAVYYCATIDTANAFGIWGQGTMVTVSS
VL: QSVLTQPPSVSAAPGQKVTISCSGASSNIGNNYVSWYQQLPGTAPKLLIYDNNKRPSGIPDRFSGSKSGTSATLGITGLQTGDEADYYCGTWDSSLSGVVFGGGTKLTVL
notes: scFv on phage
% of binding of Clone #153 to human P-cadherin-Fc: 165%
Human P-cadherin-Fc binding (OD450): 2.19 OD450
Z Score: 1.4

B5: anti-P-cadherin scFv 153 alanine-mutant L1.6-Ala (scFv, V domains shown)
VH: EVQLVQSGAEVKKPGASVKVSCKASGYTFTSYGISWVRQAPGQGLEWMGWISAYNGNTNYAQKLQGRVTMTTDTSTSTAYMELRSLRSDDTAVYYCATIDTANAFGIWGQGTMVTVSS
VL: QSVLTQPPSVSAAPGQKVTISCSGSSSAIGNNYVSWYQQLPGTAPKLLIYDNNKRPSGIPDRFSGSKSGTSATLGITGLQTGDEADYYCGTWDSSLSGVVFGGGTKLTVL
notes: scFv on phage
% of binding of Clone #153 to human P-cadherin-Fc: 88%
Human P-cadherin-Fc binding (OD450): 1.16 OD450
Z Score: -0.3

B6: anti-P-cadherin scFv 153 alanine-mutant L1.10-Ala (scFv, V domains shown)
VH: EVQLVQSGAEVKKPGASVKVSCKASGYTFTSYGISWVRQAPGQGLEWMGWISAYNGNTNYAQKLQGRVTMTTDTSTSTAYMELRSLRSDDTAVYYCATIDTANAFGIWGQGTMVTVSS
VL: QSVLTQPPSVSAAPGQKVTISCSGSSSNIGNAYVSWYQQLPGTAPKLLIYDNNKRPSGIPDRFSGSKSGTSATLGITGLQTGDEADYYCGTWDSSLSGVVFGGGTKLTVL
notes: scFv on phage
% of binding of Clone #153 to human P-cadherin-Fc: 137%
Human P-cadherin-Fc binding (OD450): 1.81 OD450
Z Score: 0.8

B7: anti-P-cadherin scFv 153 alanine-mutant L1.8-Ala (scFv, V domains shown)
VH: EVQLVQSGAEVKKPGASVKVSCKASGYTFTSYGISWVRQAPGQGLEWMGWISAYNGNTNYAQKLQGRVTMTTDTSTSTAYMELRSLRSDDTAVYYCATIDTANAFGIWGQGTMVTVSS
VL: QSVLTQPPSVSAAPGQKVTISCSGSSSNIANNYVSWYQQLPGTAPKLLIYDNNKRPSGIPDRFSGSKSGTSATLGITGLQTGDEADYYCGTWDSSLSGVVFGGGTKLTVL
notes: scFv on phage
% of binding of Clone #153 to human P-cadherin-Fc: 75%
Human P-cadherin-Fc binding (OD450): 1 OD450
Z Score: -0.5

B8: anti-P-cadherin scFv 153 alanine-mutant L2.1-Ala (scFv, V domains shown)
VH: EVQLVQSGAEVKKPGASVKVSCKASGYTFTSYGISWVRQAPGQGLEWMGWISAYNGNTNYAQKLQGRVTMTTDTSTSTAYMELRSLRSDDTAVYYCATIDTANAFGIWGQGTMVTVSS
VL: QSVLTQPPSVSAAPGQKVTISCSGSSSNIGNNYVSWYQQLPGTAPKLLIYANNKRPSGIPDRFSGSKSGTSATLGITGLQTGDEADYYCGTWDSSLSGVVFGGGTKLTVL
notes: scFv on phage
% of binding of Clone #153 to human P-cadherin-Fc: 110%
Human P-cadherin-Fc binding (OD450): 1.45 OD450
Z Score: 0.2

B9: anti-P-cadherin scFv 153 alanine-mutant L1.13-Ala (scFv, V domains shown)
VH: EVQLVQSGAEVKKPGASVKVSCKASGYTFTSYGISWVRQAPGQGLEWMGWISAYNGNTNYAQKLQGRVTMTTDTSTSTAYMELRSLRSDDTAVYYCATIDTANAFGIWGQGTMVTVSS
VL: QSVLTQPPSVSAAPGQKVTISCSGSSSNIGNNYVAWYQQLPGTAPKLLIYDNNKRPSGIPDRFSGSKSGTSATLGITGLQTGDEADYYCGTWDSSLSGVVFGGGTKLTVL
notes: scFv on phage
% of binding of Clone #153 to human P-cadherin-Fc: 171%
Human P-cadherin-Fc binding (OD450): 2.26 OD450
Z Score: 1.5

B10: anti-P-cadherin scFv 153 alanine-mutant L1.11-Ala (scFv, V domains shown)
VH: EVQLVQSGAEVKKPGASVKVSCKASGYTFTSYGISWVRQAPGQGLEWMGWISAYNGNTNYAQKLQGRVTMTTDTSTSTAYMELRSLRSDDTAVYYCATIDTANAFGIWGQGTMVTVSS
VL: QSVLTQPPSVSAAPGQKVTISCSGSSSNIGNNAVSWYQQLPGTAPKLLIYDNNKRPSGIPDRFSGSKSGTSATLGITGLQTGDEADYYCGTWDSSLSGVVFGGGTKLTVL
notes: scFv on phage
% of binding of Clone #153 to human P-cadherin-Fc: 139%
Human P-cadherin-Fc binding (OD450): 1.84 OD450
Z Score: 0.8

B11: anti-P-cadherin scFv 153 alanine-mutant L1.4-Ala (scFv, V domains shown)
VH: EVQLVQSGAEVKKPGASVKVSCKASGYTFTSYGISWVRQAPGQGLEWMGWISAYNGNTNYAQKLQGRVTMTTDTSTSTAYMELRSLRSDDTAVYYCATIDTANAFGIWGQGTMVTVSS
VL: QSVLTQPPSVSAAPGQKVTISCSGSASNIGNNYVSWYQQLPGTAPKLLIYDNNKRPSGIPDRFSGSKSGTSATLGITGLQTGDEADYYCGTWDSSLSGVVFGGGTKLTVL
notes: scFv on phage
% of binding of Clone #153 to human P-cadherin-Fc: 175%
Human P-cadherin-Fc binding (OD450): 2.31 OD450
Z Score: 1.6

B12: anti-P-cadherin scFv 153 alanine-mutant L1.9-Ala (scFv, V domains shown)
VH: EVQLVQSGAEVKKPGASVKVSCKASGYTFTSYGISWVRQAPGQGLEWMGWISAYNGNTNYAQKLQGRVTMTTDTSTSTAYMELRSLRSDDTAVYYCATIDTANAFGIWGQGTMVTVSS
VL: QSVLTQPPSVSAAPGQKVTISCSGSSSNIGANYVSWYQQLPGTAPKLLIYDNNKRPSGIPDRFSGSKSGTSATLGITGLQTGDEADYYCGTWDSSLSGVVFGGGTKLTVL
notes: scFv on phage
% of binding of Clone #153 to human P-cadherin-Fc: 129%
Human P-cadherin-Fc binding (OD450): 1.71 OD450
Z Score: 0.6

B13: anti-P-cadherin scFv 153 alanine-mutant L1.5-Ala (scFv, V domains shown)
VH: EVQLVQSGAEVKKPGASVKVSCKASGYTFTSYGISWVRQAPGQGLEWMGWISAYNGNTNYAQKLQGRVTMTTDTSTSTAYMELRSLRSDDTAVYYCATIDTANAFGIWGQGTMVTVSS
VL: QSVLTQPPSVSAAPGQKVTISCSGSSANIGNNYVSWYQQLPGTAPKLLIYDNNKRPSGIPDRFSGSKSGTSATLGITGLQTGDEADYYCGTWDSSLSGVVFGGGTKLTVL
notes: scFv on phage
% of binding of Clone #153 to human P-cadherin-Fc: 129%
Human P-cadherin-Fc binding (OD450): 1.7 OD450
Z Score: 0.6
